± gives the uncertainty stated by the source.
Assay: protein stability index of a GFP-peptide fusion (yeast GPS) (PSI 1-4); higher = more stable; sorted into four equal gates, so the index is relative within each strain
In short: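 Yeast carrying a pooled library were grown to mid-log phase in leucine-free medium. Each library plasmid expresses Cherry and has a tiled 17-residue yeast protein peptide fused downstream of GFP. Cells were sorted into four equal gates by GFP/Cherry ratio, and plasmids from each gate were PCR-amplified, Illumina-sequenced and assigned to strains by barcode. Summing, across gates, the read frequency times the gate number gave each peptide's protein stability index.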

Sequence | protein stability index (doa10∆) | protein stability index (pdr5∆) | protein stability index (san1∆) | protein stability index (ubr1∆)
EYEKRNHGGSLGKYDLT [SRP68] | 2.81 ± 0.18 | 2.56 ± 0.15 | 2.15 ± 0.14 | 1.3 ± 0.14
LPTTVVSNPGDNPPPAD [MED2] | 3.02 ± 0.046 | 2.95 ± 0.052 | 3.04 ± 0.051 | 3.11 ± 0.037
NHTAHNQTRKAHRNGIK [RPL29] | 1.88 ± 0.047 | 2.56 ± 0.059 | 2.32 ± 0.06 | 2.57 ± 0.052
PSSEKPNIRTMSGTTKR [SSN2] | – | 2.45 ± 0.27 | – | –
NPNSTAITADLGSSEAE [YGL172W/NUP49] | 2.56 ± 0.24 | 2.4 ± 0.14 | 2.86 ± 0.22 | 2.76 ± 0.12
EGAEPGPPYTTDEHLIF [ISW2] | 2.91 ± 0.043 | 2.99 ± 0.047 | 2.42 ± 0.043 | 2.68 ± 0.037
LSGLAQRKTNGASNGDD [BRN1] | 3.15 ± 0.17 | 3.29 ± 0.17 | 3.05 ± 0.077 | 3.6 ± 0.15
QLVYKRGFGKINKQRVP [RPL7A] | 2.46 ± 0.071 | 2.4 ± 0.079 | 3.24 ± 0.11 | 2.85 ± 0.059
LSLTAVPSFLRPDITMY [GRR1] | 2.17 ± 0.043 | 2.34 ± 0.045 | 2.18 ± 0.051 | 2.33 ± 0.043
MSGRGKGGKGLGKGGAK [HHF1] | 3.69 ± 0.29 | 3.56 ± 0.27 | 3.61 ± 0.097 | 3.58 ± 0.074
NNIIAEGIEKMGVRTFS [FAS2] | 2.7 ± 0.22 | – | 2.23 ± 0.12 | 2.69 ± 0.12
NDEKRVKEEYDIWQSRD [YIL149C/MLP2] | 3.22 ± 0.062 | 3.06 ± 0.078 | 3.25 ± 0.049 | 3.39 ± 0.084
PLPVETPRDRRKSVFAP [SSN2] | 2.67 ± 0.069 | 2.31 ± 0.077 | 2.99 ± 0.099 | 2.86 ± 0.049
NLVSLLIIVTRKNYMHV [YML031W/NDC1] | 1.21 ± 0.041 | 1.22 ± 0.039 | 1.26 ± 0.11 | 1.3 ± 0.033
TGLLIARRTLQKLGLDE [RPL5] | 3.2 ± 0.13 | 3.05 ± 0.17 | 3.39 ± 0.094 | 3.18 ± 0.16
SKTSENKVSNTVSPTQD [SIR2] | 2.98 ± 0.14 | 3.12 ± 0.066 | 2.83 ± 0.093 | 3.15 ± 0.12
IVMEDHGVLQGTSQNYG [MED1] | 3.11 ± 0.059 | 3.02 ± 0.067 | 3.13 ± 0.062 | 3.07 ± 0.049
FQDTLYKKIPLLGPTLE [QCR10] | 2.84 ± 0.13 | 2.94 ± 0.11 | 2.47 ± 0.18 | 2.95 ± 0.1
VFTALLRLFINEEGDWS [ITC1] | 3.4 ± 0.29 | 2.08 ± 0.17 | – | –
GDKEATAPLIQRKNKKN [RPN8] | 3.22 ± 0.15 | 3.42 ± 0.12 | 3.18 ± 0.088 | 3.15 ± 0.18
SLIIDQQENSKSGKRKP [RPC31] | 2.71 ± 0.099 | 2.7 ± 0.1 | 2.69 ± 0.086 | 2.7 ± 0.092
FDYMNRYWVQKERSDGK [CDC53] | 2.26 ± 0.16 | – | 2.39 ± 0.21 | 2.57 ± 0.18

Sequence | protein stability index (doa10∆) | protein stability index (pdr5∆) | protein stability index (san1∆) | protein stability index (ubr1∆)
VAFLDNDLGKFIPNKQL [RPN7] | 3.34 ± 0.17 | 3.02 ± 0.17 | 2.83 ± 0.26 | 2.88 ± 0.095
RRVPKELAVENPLAKTM [SEC65] | 2.99 ± 0.052 | 2.93 ± 0.042 | 2.47 ± 0.054 | 1.69 ± 0.026
ELEQLSSEALEAARICA [RPL10] | 1.21 ± 0.071 | 1.35 ± 0.059 | 1.33 ± 0.14 | 1.12 ± 0.06
LVTPKSFLFDVLKTLEY [NUT1] | 2.91 ± 0.18 | 2.98 ± 0.18 | 3.1 ± 0.15 | 2.92 ± 0.18
FYGVLDQGNGWLYVYET [RPN6] | 2.9 ± 0.095 | 2.65 ± 0.073 | 1.9 ± 0.095 | 3.02 ± 0.071
TNDDSIKNLTVQLSPSN [RGR1] | 2.8 ± 0.074 | 2.79 ± 0.059 | 2.56 ± 0.056 | 2.58 ± 0.05
RAGQRTRFKAVVVVGDS [RPS2] | 2.07 ± 0.056 | 2.2 ± 0.063 | 2.28 ± 0.088 | 2.29 ± 0.048
LPVKHPELFESLGIAQP [RPT6] | 2.65 ± 0.074 | 3.01 ± 0.039 | 2.55 ± 0.077 | 2.73 ± 0.054
TCVTCHWNLPGERIFNK [SIR2] | 2.87 ± 0.14 | 2.88 ± 0.11 | 2.82 ± 0.091 | 3.19 ± 0.083
SGYVRSRGESDDSLNRL [RPS21A] | 2.94 ± 0.14 | 1.85 ± 0.074 | 2.17 ± 0.084 | 2.88 ± 0.059
NKLLGNVTIAQGGVLPN [HTA1] | 1.82 ± 0.053 | 1.66 ± 0.041 | 1.72 ± 0.058 | 1.61 ± 0.033
SKLRNNIRSQLLSENRS [SRP54] | 2.8 ± 0.069 | 2.58 ± 0.094 | 2.67 ± 0.06 | 2.85 ± 0.049
EILVLYNVCDTSKSLVK [SIN4] | 2.3 ± 0.05 | 2.88 ± 0.046 | 2.56 ± 0.058 | 2.97 ± 0.057
KSMASAFGVSVAFLDND [RPN7] | 3.04 ± 0.091 | 3.08 ± 0.093 | 3.01 ± 0.066 | 3.24 ± 0.062
VILRKISMLVTQLQRGG [CSI1] | 1.31 ± 0.059 | 1.57 ± 0.056 | 1.55 ± 0.098 | 1.3 ± 0.045
DFTLPEDFAPLLAEEEE [PRP8] | 3.42 ± 0.19 | 3.64 ± 0.22 | 3.23 ± 0.11 | 3.2 ± 0.084
VVEEFTPVVLATPIPEE [RPS5] | 2.69 ± 0.13 | 2.27 ± 0.069 | 2.13 ± 0.056 | 2.17 ± 0.049
TMADAVRELGILCIFEG [SEC65] | 2.52 ± 0.06 | 2.05 ± 0.071 | 2.62 ± 0.063 | 1.45 ± 0.062
SNDERIVKRLYEYGAVS [BRR2] | 2.71 ± 0.076 | 2.97 ± 0.07 | 3.14 ± 0.056 | 3.14 ± 0.049
KAKTTKKVVLRLECVKC [RPL42A] | 1.64 ± 0.22 | 1.52 ± 0.17 | – | 1.81 ± 0.065
KDGEIMLWNLAAKKAMY [ASC1] | 2.55 ± 0.071 | 1.87 ± 0.05 | 2.26 ± 0.067 | 1.76 ± 0.097
PEKEASSATIVLCLTRS [YCG1] | 2.03 ± 0.06 | 2.5 ± 0.061 | 2.1 ± 0.056 | 2.24 ± 0.046

Reference: the supplement of paper PMC9732359
